Assay results from patent US20250313650A1 (BIOLEGEND, published 2025).
Residue numbers refer to the chain shown, from its start.

Tests used:
recombinant human CHI3L1 [1] = biological target: T1, recombinant human CHI3L1 (human, UniProt P36222 22-383); assay: flow cytometry blocking assay on THP-1 cells (FIG. 5A legend)
T1 construct: also called recombinant CHI3L1; CHI3L1 protein
Experimental: (§1) To assess for specificity for CHI3L1 and cross-reactivity with the closely related protein CHI3L2, certain anti-CHI3L1 antibody clones were assessed using CHI3L1 expressing human […] cell line THP-1. THP-1 cells were grown in RPMI media supplemented with 10% FBS in T75 culture flask. Cells were fixed in Fixation Buffer and permeabilized using Intracellular Perm Wash Buffer. 1 μg anti-CHI3L1 antibodies (conjugated to Alexa-647) were incubated with 5 μg recombinant CHI3L1 or recombinant CHI3L2 for 15 minutes and then added to cells. After 15 minutes incubation, cells were then washed twice with Intracellular Perm Wash Buffer and analyzed on a BD LSRII flow cytometer.

[2] = biological target: T2, CHI3L2 expressed in human T cell leukemia cell line Jurkat (human, UniProt Q15782 27-390); assay: flow cytometry on fixed/permeabilized CHI3L2-expressing Jurkat cells, Alexa-647 antibody
T2 construct: whole, on cells; Endogenous protein, detected by intracellular staining
T2 sequence (looked up): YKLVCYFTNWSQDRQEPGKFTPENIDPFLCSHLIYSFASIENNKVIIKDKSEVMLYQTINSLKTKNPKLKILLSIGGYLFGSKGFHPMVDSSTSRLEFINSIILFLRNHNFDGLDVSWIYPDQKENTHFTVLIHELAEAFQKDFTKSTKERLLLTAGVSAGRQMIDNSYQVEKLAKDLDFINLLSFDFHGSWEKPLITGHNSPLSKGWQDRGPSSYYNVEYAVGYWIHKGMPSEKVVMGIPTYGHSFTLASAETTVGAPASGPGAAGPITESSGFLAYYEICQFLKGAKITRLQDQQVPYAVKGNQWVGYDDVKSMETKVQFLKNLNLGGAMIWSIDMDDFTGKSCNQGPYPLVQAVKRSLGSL
Experimental: To asses for cross-reactivity with the closely related protein CHI3L2, certain anti-CHI3L1 antibody clones were assessed using CHI3L2 expressing human T cell leukemia cell line Jurkat. Jurkat cells were grown in RPMI media supplemented with 10% FBS in T75 culture flask. Cells were fixed in Fixation Buffer and permeabilized using Intracellular Perm Wash Buffer. 1 μg anti-CHI3L1 antibodies (conjugated to Alexa-647) were added and allowed to incubate for 15 minutes. Cells were then washed twice with Intracellular Perm Wash Buffer and analyzed on a BD LSRII flow cytometer.

recombinant CHI3L2 = biological target: T3, recombinant CHI3L2 (UniProt Q15782 27-390, limits assumed); assay: flow cytometry blocking assay on fixed/permeabilized THP-1 cells; antibody pre-incubated with recombinant protein
T3 sequence (looked up): T2 sequence (looked up)
Experimental: as §1

[3] = biological target: T4, CHI3L1 expressed in human cell lines (THP-1, U-87 MG) (human, UniProt P36222 22-383); assay: flow cytometry, fixed/permeabilized CHI3L1-expressing THP-1 cells, 1 µg Alexa-647 antibody
T4 construct: Endogenous CHI3L1 of human cell lines; It was detected inside fixed and permeabilized cells, not on the cell surface; In the ERK assay it is the CHI3L1 made by live U-87 MG cells; also called chitinase 3 like protein 1; YKL-40
Experimental: In a first experiment, certain anti-CHI31L1 antibodies were assessed using CHI31L1 expressing human […] cell line THP-1. THP-1 cells were grown in RPMI media supplemented with 10% FBS in T75 culture flask. Cells were fixed in Fixation Buffer and permeabilized using Intracellular Perm Wash Buffer. 1 μg anti-CHI31L1 antibodies (conjugated to Alexa-647) were added and allowed to incubate for 15 minutes. Cells were then washed twice with Intracellular Perm Wash Buffer and analyzed on a BD LSRII flow cytometer.

recombinant human CHI3L1 [4] = biological target: T1, recombinant human CHI3L1; assay: flow cytometry blocking assay: 1 µg antibody pre-incubated with 5 µg recombinant CHI3L1, then added to THP-1 cells
Experimental: as §1

recombinant human CHI3L1 [5] = biological target: T1, recombinant human CHI3L1; assay: bead-based sandwich immunoassay; biotinylated Clone B is the detection antibody, SAV-PE read-out
Experimental: In this Example, Clone F was paired with Clone B in a bead-based sandwich immunoassay. The assay used Clone F as a capture antibody to capture the antigen (CHI3L1 protein) and then Clone B was used as a detection antibody. The Clone F capture antibody was conjugated on the beads and the Clone B detection antibody was biotinylated. After incubation of the Clone F conjugated beads with CHI3L1 and then detection Clone B, on the beads surface, a sandwich including capture Clone F-CHI3L1-detection Clone B formed. The unbound CHI3L1 protein was then washed off and then streptavidin conjugated to phycoerythrin (SAV-PE) was added, which binds the biotin on the detection Clone B. The final complex including beads-Clone F capture antibody-CHI3L1-Clone B-SAV-PE was acquired onto a flow cytometer and the PE signal on the beads was measured.

T4 sequence (P36222 22-383 limits assumed): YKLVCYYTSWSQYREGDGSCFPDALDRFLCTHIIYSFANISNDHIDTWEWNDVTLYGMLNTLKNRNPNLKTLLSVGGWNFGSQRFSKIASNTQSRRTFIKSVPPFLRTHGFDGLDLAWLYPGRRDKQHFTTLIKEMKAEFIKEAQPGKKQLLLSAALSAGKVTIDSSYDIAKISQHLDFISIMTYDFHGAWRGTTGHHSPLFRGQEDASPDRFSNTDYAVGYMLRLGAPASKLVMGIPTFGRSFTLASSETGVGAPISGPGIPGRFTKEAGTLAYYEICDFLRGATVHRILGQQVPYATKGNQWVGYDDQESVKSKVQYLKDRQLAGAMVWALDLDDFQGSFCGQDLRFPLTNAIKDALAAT
T1 sequence (P36222 22-383 limits assumed): as above

B1: Clone A (antibody, V domains shown)
VH: DVQLQESGPDLVKPSQSLSLTCTVTGYSITSGYSWHWIRQFPGNKLEWMGYIHYSGRTNYNPSLKSRISFTRDTSKNQFFLRLNSVTPEDTATYYCARNYGYDEFAYWGQGTLVTVSA
VL: QIVLTQSPAIMSASPGEKVTMTCSASSSVSYMHWYQQKSGTSPKRWIYDTSKLASGVPARFSGSGSGTSYSLTISSMEAEDAATYYCQQWSSNPPTFGSGTKLEIK
notes: Hybridoma monoclonal antibody; Conjugated to Alexa-647 for flow cytometry
B1: binds (recombinant human CHI3L1 [1]); no binding (tested: 1 µg) [2]; no binding (recombinant CHI3L2). B1: binds [3].

B2: Clone E (antibody, V domains shown)
VH: B1 VH with R57T, F70I, R82Q, P88T, Y95S
VL: B1 VL
notes: as for B1
B2: binds [3].

B3: anti-human CHI3L1 (Clone F) (antibody, V domains shown)
VH: QVQLQQSGPELVRPGVSVKISCKGSGYTFTDYAMHWVKQSHAKSLEWIGVISTYSGHTNYNQKFKGKATMTVDKSSSTAYMELARLTSEDSAIYYCARGVYYKPEFDYWGQGTTLTVSS
VL: DIQMTQSSSSFSVSLGDRVTITCKASEDIYNRLAWYQQKPGNAPRLLIFGATSLETGVPSRFSGSGSGKDYTLSITSLQTEDVATYYCQQYSSTPPTFGGGTKLEIK
notes: Hybridoma monoclonal antibody; a mouse IgG1 kappa isotype control was used alongside it
B3: no binding (tested: 1 µg) [2]; no binding (recombinant CHI3L2).

B4: anti-human CHI3L1 (Clone H) (antibody, V domains shown)
VH: B3 VH with D31H, H57N
VL: B3 VL with Y30D, F49S, S92W
notes: as for B1
B4: binds (recombinant human CHI3L1 [4]); no binding (tested: 1 µg) [2]; no binding (recombinant CHI3L2). B4: binds [3].

B5: Clone B (antibody, V domains shown)
VH: EVKLLESGGGLVQPGGSLKLSCAASGCDFSRYWMSWVRQAPGKGLEWIGEINPDSSTINYTPSLKDKFIISRDNAKNTLYLQMSKVRSEDTALYYCARPEDHFAMDYWGQGTSVTVSS
VL: DIQMTQSPASQSASLGESVTITCLASQTIGTWLAWYQQKPGKSPQLLIYAATSLADGVPSRFSGSGSGTKFSFKISSLQAEDFVSYYCQQLYSTPWTFGGGTKLEIK
notes: Hybridoma monoclonal antibody
B5: binds (recombinant human CHI3L1 [5]).
